In a protein production outcome set (Wang et al. 2014):

assay: label from the status in PepcDB records
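Also: failed if final PepcDB status was selected cloned or expressed and not failed if soluble or beyond.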

Sequence | protein production
MLKVLFVPLNRNYVFDYIDDWKNIVADSLSRAGLSSEILIWPSTIKPSMKCFNWARKQYLAPCIIENMGNMFYDYLNEYFIVGIGYIDGYDYGLNFVFGEASPINRIAVVFTRRLDPRFYGEEPNYNLYLERVAKEIVHELGHLLGLSHCKRRTCVMSFSNSVYEVDAKTRFFCETCSNTLRKLNVLEHHHHHH | failed
MLKYQQIATEIETYIEEHQLQQGDKLPVLETLMAQFEVSKSTITKSLELLEQKGAIFQVRGSGIFVRKHKRKGYISLLSNQGFKKDLEDFNVTSKVIELDVRKPTPEAAENLNIGMDEDIYYVKRVRYINGQTLCYEESYYTKSIVTYLNNEIVSHSIFHYIREGLGLKIGFSDLFLHVGQLNEEEAEYLGLEAGLPKLYIESIFHLTNGQPFDYSKISYNYEQSQFVVQANSFLL | not failed
MLLDKIQNLIIQSDISIFQSMKKMDEEKVKLLFVFRGDCFVGILTIGDIQRAIIKQNDTSMQINNILDQNKVFAYKGESLEIIKNKMIHLRAECMPILDSKGELVDVLFWKDLFIDEVRVDDRKIDLPVVIMAGGKGTRLKPLTNVIPKPLIPIGDKTILEAILDQFESIGCSKFYMSVNYKYDILKFYLAQLDHKYDIRFFKEDKPLGTIGSVSLLKDKISTPFFVSNCDIIIDQDYRDVYDYHINNSNDLTIVTAVKRTRIPYGVIETIENGLMTELIEKPEFTYMINSGVYILQPELINEIPENELFHITHLMEKVKSRGGKIGCFPVSEKSWTDIGEWNEYLKLLGILEHHHHHH | failed
MLLILIIIAFVVLFVFFAKYQKKQAQAAALAAGDPSALLNHGLTLINQNQVETGLDFIHQAVDKGFAIAAIALAELYSGRFPQVPADAKASNDWYKKAAELDPQYLAMLTLPNLLSSQAQTPDELIAQVEQLKPNAEAGQAEFQYELAYLYLRQPFLDPDASQAIYWFEKAAAQNKQEANYHLGTLYKDDERITSDYNKARKYFEKAVAAGDELAKDNLAHMLATGQGGPKDLVRAEHLLSEYAAEDDFRQYYLGKRFLYGEDFAVDYDKARHWLEKSSAAGNVFAKLALAHLKLLAQKNDQDYLQARTEFEALAPQWQEEALFGLGKIYEEGLGVSRQPIKALMYYQLAAMSHNTDYLTAYDKLSKRLGTLEIREAQSLCNNFLHQHPIPNEQQAYYYLNQAEIYRKGDHPSREGLQTAETWYRKSADLGNQNAMQALVEIYRHELMDKPVQAFIWSSILLRNFGKYGMNSDQLLYQQQAQSRLTESELLYAQSEIERIEALLTPYLETHQSV | failed
MLLLHWDNMGKIELHHVFVMLSCIYLIFSDISINSAVVFLFSSIFFYISFTAGKRLYYLIGIDKENLKINLKKHYNFGIFLMIVGLIAVTSDLIWVKDVPLFNPLSRKFLNVYFTTLSHLFLVGWAIVVASSNIDKKKILLYTIIFSILIMLLGYRTNVLVLLISVGAILYYKNKISNREILKYGILVFVILLGLSILRLYALGVEGNPITSRISLTMSIYDIIFNNFNGVFNGYIHYSAVFSYLGLCNGARTVIAKTLGIYNVSITPTIVGAVIGDYGTLAIIPYFGILGIFLGFFYKLAKDVKGIYLGIYGILFAYTLIGIESGILDIDVILYYFFGLILCIYAILLRKLKR | failed
MLLSFDNKAIADWAKLSGDYNPIHFEVERARETGANDIIVHGMLPLLHIKQRLSTVLPADTGRDWVSVKAMFRSPVLRQLPHALEIQPGKQRSRFSLRATHDASEVMAGSVYRSVPAESPEQPASFSIDRQLFREKRAVFAEAFPDFDRAWLLVDALTFSQFLSSEVPFSIVRDLAKMSGIASQHELMDAALTVQTAHTVMVEPELFRMPLSQLKDPGEIRCELHAPVTVPNSKDTLSGLSQFTVRLDGRPVMQSEVGLLVRFKS | failed
MLLSIIMPAHNAAAYLERTLALLAQQIAGLEQVEVVAIDDASTDETAKILVEFARTHSWLKAISVDFANVGLARQAGIGLAGGQYVTFLDSDDAFLSGGLAWMVNVLRQRAPDLLMTPLQETGQPLDGTEVAGLFQDVVPLSTQQACDLFCEHQRLQGHFAGKCVTRQILLQHDLAAMECYEDMMTTPHWIVEAKSIVWGEVPVYAYYKRPGSLSDRGQTWRYGKEYIRALQSIEAAFAGRIAVWQTAHLWIGFAKDLLKTSTGRQFLDTQPAVAEKIQSISVWKYLVATQVSCKWKIRFLRVRLRLLEHHHHHH | not failed
MLLYIHGFNSSPFSDKAVITARYMAEYHPSLTFHQPQLPNTPKAAMALLQSYVEAAQQANEPLNYIGSSLGGYFASYLAERYGGRAVLVNPAVKPFELFDEFMGPQFNPYTQEHYQVLPEHKREVAEFNTPVIRNPERFLVLLQTGDEVLDYREALHKYHHCQLRIESGGDHSFVGYERYLQTVSQFLH | failed
MLNAIKFRIYPNAQQKELISKHFGCSRVVYNYFLDYRQKQYAKGIKETYFTMQKVLTQIKRQEKYHYLNECNSQSLQMALRQLVSAYDNFFSKRARYPKFKSKKNAKQSFAIPQNIETKTETQTIALPKFKEGIKAKLHRDLPKDSVIKQAFISCIADQYFCSLSYETKEPIPKPTIIKKAVGLDMGLRTLIVTSDKIGYPHIRFYQKLEKKLTKAQRRLSKKVKDSNNRKKQAKKVSRLHLACSNTRDDYLHKISNEITNQYDLIGVETLNVKALMRTYHSKSLANASWGKFLTMLEYKAQRKGKTLLSIDRFFPSSQLCSYCGVNTGKKHESITKFTCPHCQTTHHRDYNASVNIRNYALGMLDDRHKVKTDKARVGIIRSDYTHHTNECVKACGASSNGVSSKYGNILDLASYGAMKQEKAQSL | failed
MLNGLWLGFFLVAAVSAMAQWLVGGNAGIFAAMVESIFAMAKLSVEVMVLLFGTLTLWLGFLKIAEKAGIVEWLAKVLGPLFARLMPEVPPGHPALGLITMNFAANGLGLDNAATPIGLKAMRALQELNPGSTTASNAQILFLVLNASSLTLLPVTVFMYRAQQGAPDPTMVFLPILLATSVSTLVGLLSVAVMQRLRLWDPVVLAYFIPGALLLGGFMAFLGTLSAAALASLSSLLGNLTLFGVIMLFLVVGALKRVKVYEAFVEGATEGFDVAKSLLPYLVAMLVAVGVLRASGALELALDGIRHAVSWMGLDTRFVEGLPTALVKPFSGSAARAMLIETMQTQGVDSFPALVAATIQGSTETTFYVLAVYFGAVGIQRVRHAVGCALLAEFSGVVAAIFVCYWFFA | failed
MLNPDELVAIDIHTHAEEPCGCHADDGYDDFQARMAEYFGSPNKHPPTVPETAAYYRAKKIAAVIFPVDAERETGFRRYNNDEMIEITRQNSDVLIPFASIDPHKGKIGVREARRLIADYGIKGFKFHPTMQGFYANDRLAYPLYEAIQEGGAIALFHTGQTGVGSGMPGGMGMRLKYSNPMYMDDVAADFPDMKIVLAHPSFPWQEEALSVATHKPNVYIDLSGWSPKYFPPILVRYINSILQDKMLFGSDWPVITPDRWLSDFAKLEIREEVRAKVLKQNARKLLGI | failed
MLNSDIYLKESLYDLLSLWRTPAFFLPAMLFPLVFYVFFGIVFNFSAAQGEYMLVSYACFGMMGPALFNYATAVASDRAQGWLTLKRISPMPLSAYVVAKFFSSLVFAACIALMLFITAALFADVQLLLWQWATLFTVLLIGTLPFALIGLLMGLCLSDKAAPAVVNLVYLPMAFLSGLWVPIQFLPDTVRYIAYGLPSYHYSQLAHAVIGTNQGHNLWLHGLYLVAFCGVLIAVIYWRYQRLSR | failed
MLNTLIVGASGYAGAELVSYVNRHPHMTITALTVSAQSNDAGKLISDLHPQLKGIVDLPLQPMSDVRDFSADVDVVFLATAHEVSHDLAPQFLQAGCVVFDLSGAFRVNDRAFYEKYYGFTHQYPELLEQAVYGLAEWNVDKLNTANLIAVPGCYPTAAQLSLKPLIDGGLLDLTQWPVINATSGVSGAGRKAAISNSFCEVSLQPYGVFTHRHQPEIAVHLGAEVIFTPHLGNFPRGILETITCRLKAGVTHAQVADVLQKAYGDKPLVRLYDKGVPALKNVVGLPFCDIGFAVQGEHLIVVATEDNLLKGAAAQAVQCANIRFGFAETQSLI | not failed
MLPAQDTRGKGLSLARRLYRSRTLGLALGFFCVAAGMAPLQPAPWVWGFMLFNAFAWPHLAYQWARLARVPFRAEYRNLLVDSLLGGFWVGAMHFNPLPLATTLGMMAMNNMALGGLRFFLAGSAAQVLGMGVALWLFGPAFVAQTTPEQVYACLPMLTLYPLALGYICYQQAVTLGRHKRELLALSRTDSLTGLLNHGAWKDQLEIEFQRCKRQAHGGAIALIDIDHFKAINDTYGHVAGDVVLRQLSKLLRQNLRVSDQAGRYGGDEFCVILPDVPLAHAAELMEALRGRFGALGYEQSPALQVSLSIGLAAFNPLHDDAMGWLNDADQALYAAKTCGRNNVTCHPPEQPSRRLLNSL | failed
